Laboratory results taken from IntAct's records for PubMed 31515488.

B1: Isoform 1 of Mothers against decapentaplegic homolog 3 (Homo sapiens), P84022-1 (parent)
chain: MSSILPFTPPIVKRLLGWKKGEQNGQEEKWCEKAVKSLVKKLKKTGQLDELEKAITTQNVNTKCITIPRSLDGRLQVSHRKGLPHVIYCRLWRWPDLHSHHELRAMELCEFAFNMKKDEVCVNPYHYQRVETPVLPPVLVPRHTEIPAEFPPLDDYSHSIPENTNFPAGIEPQSNIPETPPPGYLSEDGETSDHQMNHSMDAGSPNLSPNPMSPAHNNLDLQPVTYCEPAFWCSISYYELNQRVGETFHASQPSMTVDGFTDPSNSERFCLGLLSNVNRNAAVELTRRHIGRGVRLYYIGGEVFAECLSDSAIFVQSPNCNQRYGWHPATVCKIPPGCNLKIFNNQEFAALLAQSVNQGFEAVYQLTRMCTIRMSFVKGWGAEYRRQTVTSTPCWIELHLNGPLQWLDKVLTQMGSPSIRCSSVS
partner: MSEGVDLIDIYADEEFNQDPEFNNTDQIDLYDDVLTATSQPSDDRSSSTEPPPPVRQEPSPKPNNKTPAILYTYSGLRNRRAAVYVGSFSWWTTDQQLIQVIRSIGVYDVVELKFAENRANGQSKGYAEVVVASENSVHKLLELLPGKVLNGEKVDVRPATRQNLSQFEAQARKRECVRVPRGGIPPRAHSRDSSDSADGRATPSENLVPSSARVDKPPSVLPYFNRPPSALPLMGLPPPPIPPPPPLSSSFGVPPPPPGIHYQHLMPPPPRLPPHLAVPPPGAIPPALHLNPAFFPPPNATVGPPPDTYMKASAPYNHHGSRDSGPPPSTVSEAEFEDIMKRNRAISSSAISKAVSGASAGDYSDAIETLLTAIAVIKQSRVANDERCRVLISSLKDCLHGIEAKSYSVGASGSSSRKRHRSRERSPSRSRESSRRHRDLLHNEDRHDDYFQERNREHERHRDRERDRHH
B2: Zinc finger protein 488 (Homo sapiens), Q96MN9 (parent)
chain: MPEWPPCLSVAPALVITMAAGKGAPLSPSAENRWRLSEPELGRGCKPVLLEKTNRLGPEAAVGRAGRDVGSAELALLVAPGKPRPGKPLPPKTRGEQRQSAFTELPRMKDRQVDAQAQEREHDDPTGQPGAPQLTQNIPRGPAGSKVFSVWPSGARSEQRSAFSKPTKRPAERPELTSVFPAGESADALGELSGLLNTTDLACWGRLSTPKLLVGDLWNLQALPQNAPLCSTFLGAPTLWLEHTQAQVPPPSSSSTTSWALLPPTLTSLGLSTQNWCAKCNLSFRLTSDLVFHMRSHHKKEHAGPDPHSQKRREEALACPVCQEHFRERHHLSRHMTSHS
B3: Nuclear pore glycoprotein p62 (Homo sapiens), P37198 (parent)
chain: MSGFNFGGTGAPTGGFTFGTAKTATTTPATGFSFSTSGTGGFNFGAPFQPATSTPSTGLFSLATQTPATQTTGFTFGTATLASGGTGFSLGIGASKLNLSNTAATPAMANPSGFGLGSSNLTNAISSTVTSSQGTAPTGFVFGPSTTSVAPATTSGGFSFTGGSTAQPSGFNIGSAGNSAQPTAPATLPFTPATPAATTAGATQPAAPTPTATITSTGPSLFASIATAPTSSATTGLSLCTPVTTAGAPTAGTQGFSLKAPGAASGTSTTTSTAATATATTTSSSSTTGFALNLKPLAPAGIPSNTAAAVTAPPGPGAAAGAAASSAMTYAQLESLINKWSLELEDQERHFLQQATQVNAWDRTLIENGEKITSLHREVEKVKLDQKRLDQELDFILSQQKELEDLLSPLEELVKEQSGTIYLQHADEEREKTYKLAENIDAQLKRMAQDLKDIIEHLNTSGAPADTSDPLQQICKILNAHMDSLQWIDQNSALLQRKVEEVTKVCEGRRKEQERSFRITFD
partner: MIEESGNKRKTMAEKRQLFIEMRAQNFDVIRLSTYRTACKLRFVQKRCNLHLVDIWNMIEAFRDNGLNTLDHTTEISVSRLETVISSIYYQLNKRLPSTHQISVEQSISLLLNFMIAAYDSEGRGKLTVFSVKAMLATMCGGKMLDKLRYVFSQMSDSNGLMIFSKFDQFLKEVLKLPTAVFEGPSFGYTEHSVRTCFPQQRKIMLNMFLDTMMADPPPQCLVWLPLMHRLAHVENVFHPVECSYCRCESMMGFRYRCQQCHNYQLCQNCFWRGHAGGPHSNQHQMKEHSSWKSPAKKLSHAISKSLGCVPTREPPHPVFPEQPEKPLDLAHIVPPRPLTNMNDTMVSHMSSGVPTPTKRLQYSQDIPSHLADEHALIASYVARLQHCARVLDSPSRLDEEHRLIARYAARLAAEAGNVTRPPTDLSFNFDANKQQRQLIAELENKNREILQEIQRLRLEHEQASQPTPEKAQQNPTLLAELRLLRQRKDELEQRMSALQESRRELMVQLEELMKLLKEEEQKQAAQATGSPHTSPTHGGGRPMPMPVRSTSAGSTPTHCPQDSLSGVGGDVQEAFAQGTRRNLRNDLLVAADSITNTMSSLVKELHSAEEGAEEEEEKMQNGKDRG
B4: Ligand-dependent corepressor (Homo sapiens), Q96JN0 (parent)
chain: MQRMIQQFAAEYTSKNSSTQDPSQPNSTKNQSLPKASPVTTSPTAATTQNPVLSKLLMADQDSPLDLTVRKSQSEPSEQDGVLDLSTKKSPCAGSTSLSHSPGCSSTQGNGRPGRPSQYRPDGLRSGDGVPPRSLQDGTREGFGHSTSLKVPLARSLQISEELLSRNQLSTAASLGPSGLQNHGQHLILSREASWAKPHYEFNLSRMKFRGNGALSNISDLPFLAENSAFPKMALQAKQDGKKDVSHSSPVDLKIPQVRGMDLSWESRTGDQYSYSSLVMGSQTESALSKKLRAILPKQSRKSMLDAGPDSWGSDAEQSTSGQPYPTSDQEGDPGSKQPRKKRGRYRQYNSEILEEAISVVMSGKMSVSKAQSIYGIPHSTLEYKVKERLGTLKNPPKKKMKLMRSEGPDVSVKIELDPQGEAAQSANESKNE
B5: Isoform 1 of NF-kappa-B inhibitor beta (Homo sapiens), Q15653-1 (parent)
chain: MAGVACLGKAADADEWCDSGLGSLGPDAAAPGGPGLGAELGPGLSWAPLVFGYVTEDGDTALHLAVIHQHEPFLDFLLGFSAGTEYMDLQNDLGQTALHLAAILGETSTVEKLYAAGAGLCVAERRGHTALHLACRVGAHACARALLQPRPRRPREAPDTYLAQGPDRTPDTNHTPVALYPDSDLEKEEEESEEDWKLQLEAENYEGHTPLHVAVIHKDVEMVRLLRDAGADLDKPEPTCGRSPLHLAVEAQAADVLELLLRAGANPAARMYGGRTPLGSAMLRPNPILARLLRAHGAPEPEGEDEKSGPCSSSSDSDSGDEGDEYDDIVVHSSRSQTRLPPTPASKPLPDDPRPV
partner: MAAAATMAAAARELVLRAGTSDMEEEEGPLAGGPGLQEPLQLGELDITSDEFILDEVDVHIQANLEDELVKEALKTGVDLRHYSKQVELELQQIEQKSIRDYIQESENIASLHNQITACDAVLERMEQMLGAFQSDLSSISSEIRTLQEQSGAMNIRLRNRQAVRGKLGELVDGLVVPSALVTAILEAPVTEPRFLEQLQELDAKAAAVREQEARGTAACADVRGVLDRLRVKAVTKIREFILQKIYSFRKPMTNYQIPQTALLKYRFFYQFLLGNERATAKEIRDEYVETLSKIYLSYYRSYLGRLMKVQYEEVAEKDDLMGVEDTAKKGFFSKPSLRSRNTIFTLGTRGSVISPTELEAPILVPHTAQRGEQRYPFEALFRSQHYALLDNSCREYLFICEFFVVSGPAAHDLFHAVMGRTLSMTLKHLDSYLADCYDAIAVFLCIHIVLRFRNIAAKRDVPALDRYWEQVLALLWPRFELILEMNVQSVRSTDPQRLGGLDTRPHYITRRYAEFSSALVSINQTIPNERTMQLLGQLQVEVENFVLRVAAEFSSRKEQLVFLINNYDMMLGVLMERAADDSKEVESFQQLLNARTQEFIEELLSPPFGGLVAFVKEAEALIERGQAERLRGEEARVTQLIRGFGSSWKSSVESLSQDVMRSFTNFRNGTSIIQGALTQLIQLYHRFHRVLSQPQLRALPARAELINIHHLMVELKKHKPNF

Variants of: B1
Details: with cpsf7_human CPSF7, Q8N684

Row | Variant | effect of a mutation on the interaction
1 | P393L | disrupting interaction strength

Variants of: B2
Details: with rbpms_human RBPMS

Row | Variant | effect of a mutation on the interaction
2 | C230R | with no effect
3 | A72V | with no effect

Variants of: B3
Details: with dtnb_human DTNB

Row | Variant | effect of a mutation on the interaction
4 | A279T | with no effect

Variants of: B4
Details: with ctbp2_human CTBP2, P56545

Row | Variant | effect of a mutation on the interaction
5 | T44M | with no effect

Variants of: B5
Details: with vps52_human VPS52, Q8N1B4

Row | Variant | effect of a mutation on the interaction
6 | Q69L | with no effect
